Results reported in article PMC4893161, “The Dynamic Localization of Cytoplasmic Dynein in Neurons Is Driven by Kinesin-1” (Neuron, 2016).
Blank lines part the entries; values can stand above or below the binder they belong to.

Assays:
[1] = target: T1, WD1^pept, TAMRA-conjugated 11-amino-acid peptide centered on the first tryptophan motif of DIC1 (TAMRA-conjugated (position not given)); assay: fluorescence polarisation; TAMRA-conjugated DIC1 tryptophan-motif peptides with purified KLC1 or KLC2 TPR domain; KD values determined at 150 mM NaCl; conditions: both partners purified
T1 construct: 11 residues of dynein intermediate chain 1 centered on the first tryptophan motif (WD1) in AS loop 1; also called WD1 peptide; peptide of the first DIC1 tryptophan motif

[2] = target: T2, mCherry-tagged DIC1a (dynein intermediate chain 1, isoform a), wild-type (UniProt Q63100 1-643); assay: co-IP; COS cells cotransfected with mCherry-tagged DIC1a (wild-type or WD mutants) and HA-tagged KLC1 or KLC2; IP with anti-mCherry; western blotting with anti-DIC and anti-HA; conditions: partners not purified
T2 construct: cytoplasmic dynein intermediate chain 1, neuron-specific isoform DIC1a with both alternatively spliced regions (AS loop 1 with WD1, AS loop 2 with WD2); also called WT DIC1a; source: COS cells, cotransfected, in lysate
T2 sequence (Q63100 whole entry, canonical isoform): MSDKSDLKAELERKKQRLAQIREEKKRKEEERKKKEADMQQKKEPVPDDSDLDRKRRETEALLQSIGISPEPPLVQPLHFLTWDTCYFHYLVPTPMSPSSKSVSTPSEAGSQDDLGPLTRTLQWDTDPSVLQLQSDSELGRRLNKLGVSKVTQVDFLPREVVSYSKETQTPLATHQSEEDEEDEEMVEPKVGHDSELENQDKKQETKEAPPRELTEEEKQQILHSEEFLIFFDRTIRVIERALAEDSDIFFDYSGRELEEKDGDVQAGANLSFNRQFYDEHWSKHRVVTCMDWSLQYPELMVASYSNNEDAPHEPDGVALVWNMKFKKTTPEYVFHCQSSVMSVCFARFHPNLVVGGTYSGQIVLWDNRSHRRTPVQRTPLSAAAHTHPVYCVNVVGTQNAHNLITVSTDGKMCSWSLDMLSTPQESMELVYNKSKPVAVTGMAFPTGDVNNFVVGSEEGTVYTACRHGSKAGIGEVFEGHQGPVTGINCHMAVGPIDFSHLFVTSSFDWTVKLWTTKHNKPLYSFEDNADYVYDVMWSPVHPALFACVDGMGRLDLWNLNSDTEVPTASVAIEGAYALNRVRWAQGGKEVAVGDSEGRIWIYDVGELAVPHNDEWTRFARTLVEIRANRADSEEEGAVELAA

Kd [1]: 7.58 ± 0.61 µM
B1: KLC1^TPR, purified TPR domain of KLC1 (domain or fragment)
chain: YEIPARLRTLHNLVIQYASQGRYEVAVPSCKQALEDLEKTSGHDHPDVATMLNILALVYRDQNKYKDAANLLNDALAIREKTLGRDHPAVAATLNNLAVLYGKRGKYKEAEPLCKRALEIREKVLGKDHPDVAKQLNNLALLCQNQGKYEEVEYYYQRALGIYQTKLGPDRTPNVAKTKNNLASCYLKQGKFKQAETLYKEILTRAHEAEFGSVDDENKPIWMHAEEREECKGKQKDGSAFGEYGGWYKACKVDSPTVTTTLKNLGALYRRQGKFEAAETLEEAAMRSRKQGL

fold co-immunoprecipitated relative to KLC1 [2]: 5 fold
B2: HA-tagged KLC2 (kinesin light chain 2) (natural protein, UniProt O88448 1-599, looked up)
chain: MATMVLPREEKLSQDEIVLGTKAVIQGLETLRGEHRALLAPLASHEAGEAEPGSQERCLLLRRSLEAIELGLGEAQVILALSSHLGAVESEKQKLRAQVRRLVQENQWLREELAGTQQKLQRSEQAVAQLEEEKQHLLFMSQIRKLDEMLPQEEKGDVPKDSLDDLFPNEDEQSPAPSPGGGDVAAQHGGYEIPARLRTLHNLVIQYASQGRYEVAVPLCKQALEDLEKTSGHDHPDVATMLNILALVYRDQNKYKDAAHLLNDALAIREKTLGKDHPAVAATLNNLAVLYGKRGKYKEAEPLCKRALEIREKVLGKFHPDVAKQLSNLALLCQNQGKAEEVEYYYRRALEIYATRLGPDDPNVAKTKNNLASCYLKQGKYQDAETLYKEILTRAHEKEFGSVNGENKPIWMHAEEREESKDKRRDRRPMEYGSWYKACKVDSPTVNTTLRTLGALYRPEGKLEAAHTLEDCASRSRKQGLDPASQTKVVELLKDGSGRGHRRGSRDVAGPQSESDLEESGPAAEWSGDGSGSLRRSGSFGKLRDALRRSSEMLVRKLQGGGPQEPNSRMKRASSLNFLNKSVEEPVQPGGRVFLTAAL
notes: kinesin light chain 2; source: COS cells, cotransfected, in lysate
